Data: the supplement of paper PMC10065799, “High-throughput profiling of sequence recognition by tyrosine kinases and SH2 domains using bacterial peptide display” (eLife, 2023)

Columns and labels:
Hck = Hck (UniProt P08631); assay: phosphorylation enrichment, bacterial display (enrichment ratio); higher = better substrate or ligand; peptides without Tyr show the background
AncSZ = assay: as above
c-Abl (mouse) = assay: as above
FGFR3 = FGFR3 (UniProt P22607); assay: as above
Fer (mouse) = assay: as above
Fyn = Fyn (UniProt P06241); assay: as above
Fyn, sequence (P06241 whole entry, looked up): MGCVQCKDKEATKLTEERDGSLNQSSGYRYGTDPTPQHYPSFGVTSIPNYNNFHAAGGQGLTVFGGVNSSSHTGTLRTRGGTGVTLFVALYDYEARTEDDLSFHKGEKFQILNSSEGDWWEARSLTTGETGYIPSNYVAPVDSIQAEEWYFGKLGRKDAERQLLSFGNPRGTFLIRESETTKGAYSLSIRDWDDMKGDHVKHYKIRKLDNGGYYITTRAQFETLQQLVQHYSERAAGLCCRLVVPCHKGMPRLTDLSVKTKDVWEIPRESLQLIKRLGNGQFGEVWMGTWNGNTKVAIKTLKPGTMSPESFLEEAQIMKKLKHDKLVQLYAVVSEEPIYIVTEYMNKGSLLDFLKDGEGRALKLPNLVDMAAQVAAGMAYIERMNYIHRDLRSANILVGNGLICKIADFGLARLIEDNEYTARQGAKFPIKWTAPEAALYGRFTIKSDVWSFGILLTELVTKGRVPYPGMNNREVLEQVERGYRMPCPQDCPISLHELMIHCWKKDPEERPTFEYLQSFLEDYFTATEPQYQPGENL

Jak2 = Jak2 (UniProt O60674); assay: as above
Jak2, sequence (O60674 whole entry, looked up): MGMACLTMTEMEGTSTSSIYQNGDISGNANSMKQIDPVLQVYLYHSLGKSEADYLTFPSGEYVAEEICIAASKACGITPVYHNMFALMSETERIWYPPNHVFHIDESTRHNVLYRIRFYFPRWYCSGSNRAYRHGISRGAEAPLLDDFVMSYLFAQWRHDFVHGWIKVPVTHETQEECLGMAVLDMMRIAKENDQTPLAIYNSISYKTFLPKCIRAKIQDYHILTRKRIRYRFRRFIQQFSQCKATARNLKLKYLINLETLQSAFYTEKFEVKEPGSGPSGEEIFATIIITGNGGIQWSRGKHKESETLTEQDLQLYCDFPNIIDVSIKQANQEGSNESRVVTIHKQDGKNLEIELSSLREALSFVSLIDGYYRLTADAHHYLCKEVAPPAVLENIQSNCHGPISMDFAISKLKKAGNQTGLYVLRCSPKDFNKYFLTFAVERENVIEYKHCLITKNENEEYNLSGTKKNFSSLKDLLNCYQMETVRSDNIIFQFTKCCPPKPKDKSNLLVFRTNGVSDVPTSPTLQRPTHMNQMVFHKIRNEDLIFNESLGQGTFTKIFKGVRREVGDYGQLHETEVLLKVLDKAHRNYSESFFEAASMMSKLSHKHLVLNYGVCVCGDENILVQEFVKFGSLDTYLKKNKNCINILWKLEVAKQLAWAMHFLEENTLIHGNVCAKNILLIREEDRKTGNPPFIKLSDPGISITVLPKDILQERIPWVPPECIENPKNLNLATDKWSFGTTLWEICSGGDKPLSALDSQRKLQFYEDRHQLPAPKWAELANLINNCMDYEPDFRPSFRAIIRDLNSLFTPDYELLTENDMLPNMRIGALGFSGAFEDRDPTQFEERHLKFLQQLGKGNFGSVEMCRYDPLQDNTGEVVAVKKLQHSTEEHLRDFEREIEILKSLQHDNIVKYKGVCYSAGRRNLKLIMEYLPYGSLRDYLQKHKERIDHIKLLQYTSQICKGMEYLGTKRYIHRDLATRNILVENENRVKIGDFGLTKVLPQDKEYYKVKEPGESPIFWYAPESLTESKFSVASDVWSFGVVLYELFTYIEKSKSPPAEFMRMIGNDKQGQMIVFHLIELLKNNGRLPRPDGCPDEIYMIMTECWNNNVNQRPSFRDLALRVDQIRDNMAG

MERTK = MERTK (UniProt Q12866); assay: as above
MERTK, sequence (Q12866 whole entry, looked up): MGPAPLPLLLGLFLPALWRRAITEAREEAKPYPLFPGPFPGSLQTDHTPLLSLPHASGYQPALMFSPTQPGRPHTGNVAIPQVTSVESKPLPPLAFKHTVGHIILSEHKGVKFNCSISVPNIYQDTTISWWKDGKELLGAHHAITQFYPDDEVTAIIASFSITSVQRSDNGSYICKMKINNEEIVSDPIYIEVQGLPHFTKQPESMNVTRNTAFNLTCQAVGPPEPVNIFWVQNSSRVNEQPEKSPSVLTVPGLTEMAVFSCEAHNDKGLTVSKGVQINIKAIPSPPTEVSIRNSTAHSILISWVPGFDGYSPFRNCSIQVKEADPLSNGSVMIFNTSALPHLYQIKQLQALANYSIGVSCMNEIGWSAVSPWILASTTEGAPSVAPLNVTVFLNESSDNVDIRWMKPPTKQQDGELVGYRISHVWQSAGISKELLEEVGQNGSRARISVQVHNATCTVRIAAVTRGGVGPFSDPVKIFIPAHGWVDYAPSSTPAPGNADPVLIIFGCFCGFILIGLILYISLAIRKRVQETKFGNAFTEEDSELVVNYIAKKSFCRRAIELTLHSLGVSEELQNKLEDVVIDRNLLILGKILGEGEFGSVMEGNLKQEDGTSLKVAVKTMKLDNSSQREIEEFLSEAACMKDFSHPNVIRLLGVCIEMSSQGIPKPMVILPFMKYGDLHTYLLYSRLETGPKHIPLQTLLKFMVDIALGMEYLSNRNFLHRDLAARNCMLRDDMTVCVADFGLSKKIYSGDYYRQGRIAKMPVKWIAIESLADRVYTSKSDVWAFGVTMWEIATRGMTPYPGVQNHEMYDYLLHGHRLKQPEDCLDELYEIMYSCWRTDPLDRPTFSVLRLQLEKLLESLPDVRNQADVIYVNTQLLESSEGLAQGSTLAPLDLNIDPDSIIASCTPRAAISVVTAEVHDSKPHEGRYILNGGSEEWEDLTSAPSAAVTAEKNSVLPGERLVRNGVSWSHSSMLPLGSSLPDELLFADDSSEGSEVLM

FGFR1 = FGFR1 (UniProt P11362); assay: as above
EPHB1 = EPHB1 (UniProt P54762); assay: as above
EPHB1, sequence (P54762 whole entry, looked up): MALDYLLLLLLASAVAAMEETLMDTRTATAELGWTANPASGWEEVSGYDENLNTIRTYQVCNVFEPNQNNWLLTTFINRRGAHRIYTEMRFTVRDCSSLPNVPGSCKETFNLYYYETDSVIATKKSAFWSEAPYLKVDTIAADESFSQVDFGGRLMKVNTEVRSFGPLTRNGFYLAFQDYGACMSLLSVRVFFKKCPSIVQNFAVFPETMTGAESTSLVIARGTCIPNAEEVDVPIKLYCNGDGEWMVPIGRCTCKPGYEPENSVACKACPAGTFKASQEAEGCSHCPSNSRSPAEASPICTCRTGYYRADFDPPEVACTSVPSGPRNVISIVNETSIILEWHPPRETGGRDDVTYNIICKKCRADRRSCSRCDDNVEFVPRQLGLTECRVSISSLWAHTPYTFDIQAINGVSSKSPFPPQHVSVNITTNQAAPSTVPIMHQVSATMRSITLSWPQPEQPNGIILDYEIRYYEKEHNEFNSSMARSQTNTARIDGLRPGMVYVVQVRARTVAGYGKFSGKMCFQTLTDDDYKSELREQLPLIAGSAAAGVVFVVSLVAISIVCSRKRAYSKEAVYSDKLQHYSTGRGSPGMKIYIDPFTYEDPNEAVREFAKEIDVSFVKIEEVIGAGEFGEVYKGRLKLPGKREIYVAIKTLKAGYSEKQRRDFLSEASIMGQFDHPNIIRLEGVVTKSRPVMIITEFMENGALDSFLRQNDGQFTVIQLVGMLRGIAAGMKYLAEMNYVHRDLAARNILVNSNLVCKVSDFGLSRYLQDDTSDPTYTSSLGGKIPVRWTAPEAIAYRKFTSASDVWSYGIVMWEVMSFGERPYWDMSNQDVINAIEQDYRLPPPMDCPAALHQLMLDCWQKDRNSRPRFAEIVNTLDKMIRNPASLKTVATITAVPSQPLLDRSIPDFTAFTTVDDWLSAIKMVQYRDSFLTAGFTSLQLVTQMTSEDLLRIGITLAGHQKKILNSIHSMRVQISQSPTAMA

c-Src = assay: as above
EPHB2 = EPHB2 (UniProt P29323); assay: as above
Fes = Fes (UniProt P07332); assay: as above
Fes, sequence (P07332 whole entry, looked up): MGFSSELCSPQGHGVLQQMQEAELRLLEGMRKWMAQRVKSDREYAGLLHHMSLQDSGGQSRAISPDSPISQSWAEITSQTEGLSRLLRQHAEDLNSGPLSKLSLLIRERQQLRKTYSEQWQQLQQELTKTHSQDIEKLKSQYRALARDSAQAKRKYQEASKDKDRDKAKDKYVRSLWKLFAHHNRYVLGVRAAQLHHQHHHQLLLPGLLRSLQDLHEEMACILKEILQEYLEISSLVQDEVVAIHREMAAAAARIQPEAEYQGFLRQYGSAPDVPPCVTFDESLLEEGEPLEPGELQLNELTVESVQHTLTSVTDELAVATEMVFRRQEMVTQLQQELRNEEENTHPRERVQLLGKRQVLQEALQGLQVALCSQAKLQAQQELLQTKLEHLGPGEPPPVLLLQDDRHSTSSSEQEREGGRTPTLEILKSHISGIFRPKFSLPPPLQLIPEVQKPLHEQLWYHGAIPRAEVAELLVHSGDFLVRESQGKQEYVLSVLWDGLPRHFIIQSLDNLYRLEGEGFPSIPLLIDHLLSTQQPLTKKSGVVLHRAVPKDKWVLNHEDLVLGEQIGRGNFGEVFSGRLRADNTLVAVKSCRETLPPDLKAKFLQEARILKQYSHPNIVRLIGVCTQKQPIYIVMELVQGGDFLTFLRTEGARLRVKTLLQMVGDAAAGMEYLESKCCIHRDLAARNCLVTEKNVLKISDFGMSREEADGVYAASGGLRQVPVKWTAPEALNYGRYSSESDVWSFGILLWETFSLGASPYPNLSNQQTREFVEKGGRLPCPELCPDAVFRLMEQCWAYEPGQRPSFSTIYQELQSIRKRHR

SHP2-C SH2 = assay: SH2 binding enrichment of the phosphorylated peptide, bacterial display (enrichment ratio); higher = better substrate or ligand; peptides without Tyr show the background
Grb2 SH2 = Grb2 SH2 (UniProt P62993); assay: as above
Grb2 SH2, sequence (P62993 whole entry, looked up): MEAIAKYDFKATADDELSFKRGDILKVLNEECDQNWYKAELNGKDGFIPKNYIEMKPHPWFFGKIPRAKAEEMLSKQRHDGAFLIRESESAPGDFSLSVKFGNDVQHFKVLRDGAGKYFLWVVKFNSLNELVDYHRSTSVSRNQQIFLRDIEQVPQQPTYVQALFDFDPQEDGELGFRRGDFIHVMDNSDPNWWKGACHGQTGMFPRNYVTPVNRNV

c-Src SH2 = assay: as above
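Throughout, for SH2 binding enrichment of the phosphorylated peptide, bacterial display: peptide library displayed on the E. coli surface as eCPX fusions, selected cells deep-sequenced, score is each peptide's frequency after selection divided by its frequency in the input.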
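Throughout, for phosphorylation enrichment, bacterial display: 11-residue human phosphosite peptides and single-mutation variants displayed on the E. coli surface, counted by deep sequencing, each peptide's frequency after selection divided by its frequency in the unselected input library; frequency after pTyr selection over input frequency; kinase dosed for 20-30% of maximal phosphorylation in three min.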

Row | Sequence | phosphorylation enrichment (Hck) | phosphorylation enrichment (AncSZ) | phosphorylation enrichment (c-Abl (mouse)) | phosphorylation enrichment (FGFR3) | phosphorylation enrichment (Fer (mouse)) | phosphorylation enrichment (Fyn) | phosphorylation enrichment (Jak2) | phosphorylation enrichment (MERTK) | phosphorylation enrichment (FGFR1) | phosphorylation enrichment (EPHB1) | phosphorylation enrichment (c-Src) | phosphorylation enrichment (EPHB2) | phosphorylation enrichment (Fes) | SH2 binding enrichment (SHP2-C SH2) | SH2 binding enrichment (Grb2 SH2) | SH2 binding enrichment (c-Src SH2)
1 | AALSAYAPQRP [PTPRN2_Y249_A251P] | 0.529 | 0.853 | 0.791 | 0.584 | 0.541 | 0.733 | 0.803 | 0.543 | 0.605 | 0.54 | 0.521 | 0.527 | 1.08 | 0.549 | 0.713 | 0.504
2 | ADRARYSAFGG [RBM4_Y361] | 0.381 | 0.5 | 0.546 | 0.394 | 0.424 | 0.41 | 0.482 | 0.4 | 0.35 | 0.371 | 0.397 | 0.303 | 0.523 | 0.58 | 0.78 | 0.55
3 | YLRTGYSVPYG [TGM1_Y370] | 0.493 | 0.834 | 0.777 | 0.532 | 0.489 | 0.42 | 0.893 | 0.666 | 0.495 | 0.4 | 0.408 | 0.534 | 0.685 | 1.64 | 0.848 | 9.92
4 | KLLPEYPGILS [DHFR2_Y163_V166I] | 0.419 | 0.772 | 0.627 | 0.524 | 0.466 | 0.436 | 0.739 | 0.376 | 0.467 | 0.488 | 0.431 | 0.458 | 0.832 | 0.71 | 0.884 | 0.528
5 | RHPYFFAPELL [ALB_Y174_Y174F] | 0.598 | 1.22 | 1.19 | 13.9 | 0.541 | 0.601 | 1.39 | 0.557 | 16.3 | 0.723 | 1.29 | 0.613 | 1.33 | 1.01 | 1.22 | 0.954
6 | KIPGRYYETGS [PAX2_Y72_L69P] | 0.388 | 0.56 | 0.689 | 0.539 | 0.588 | 0.496 | 0.637 | 0.573 | 0.503 | 0.445 | 0.476 | 0.424 | 0.713 | 0.727 | 0.97 | 0.823
7 | SLFNGYVFSGV [NEIL3_Y71_YF] | 0.555 | 0.779 | 0.624 | 0.584 | 0.494 | 0.451 | 0.908 | 0.472 | 0.562 | 0.514 | 0.418 | 0.567 | 0.77 | 0.719 | 0.71 | 0.967
8 | FMMMRYSQNIR [SDAD1_Y656_V660I] | 0.53 | 1.17 | 0.61 | 0.795 | 0.509 | 0.513 | 0.955 | 0.414 | 0.663 | 0.77 | 0.397 | 1.23 | 1.3 | 1.36 | 1.35 | 0.883
